From patent US20250215092A1 (ZHEJIANG NANOMAB TECHNOLOGY CENTER, published 2025) come the findings set out here.

For test [1], the target named is T1, Mouse EGFR Protein, His Tag (Acro, Cat #EGR-M5224) (mouse, UniProt Q01279 25-647).
T1 construct: extracellular domain; Bought protein; not shown: His tag
In words: ELISA, coated antigen 1 ug/mL, antibody 50 nM. As to the method:
(§1) ELISA was used to identify the binding of VHH-IgG4 antibodies to the extracellular domains of mouse EGFR, monkey EGFR, and human EGFR proteins. The detection steps were as follows: Mouse EGFR Protein, His Tag (Acro, Cat #EGR-M5224) and Rhesus macaque EGFR Protein, His Tag (Acro, Cat #EGR-C52H1) were diluted to 1 μg/mL with phosphate buffer, and 100 μL of each dilution was added to a 96-well ELISA plate and coated overnight at 4° C. The next day, the plates were washed twice with PBST (containing 0.5% TWEEN-20) and then blocked with 3% BSA at 37° C. for 1.5 h, followed by two washes with PBST. VHH-IgG4 antibodies were diluted to 50 nM, and 100 μL of the dilution was added to each well and incubated at 37° C. for 1 h. The plates were then washed three times with PBST, and 100 μL of HRP-labeled goat anti-human IgG Fc antibody (1:10000, Bethyl) was added to each well and incubated at 37° C. for another 40 min. After washing the plates four times with PBST, 100 μL of TMB substrate was added to each well, and the reaction was allowed to proceed for 3-5 min. The reaction was stopped by adding 100 μL of 3N hydrochloric acid per well. After stopping the reaction, the optical density at 450/650 nm was measured using a Tecan microplate reader.

The target in test [2] is T2, Rhesus macaque EGFR Protein, His Tag (Acro, Cat #EGR-C52H1) (rhesus macaque, UniProt P55245 25-645).
T2 construct: extracellular domain; Bought protein; also called Monkey EGFR; not shown: His tag
In words: ELISA, coated antigen 1 ug/mL, antibody 50 nM. As to the method: as §1

Test [3] deals with T3, human EGFR.His antigen (Acro, Cat #EGR-H522a) (human, UniProt P00533 25-645).
T3 construct: extracellular domain; Bought protein; also called EGFR his tag protein; full-length EGFR extracellular domain protein; not shown: His tag
In words: ELISA: EGFR his tag protein coated at 1 µg/mL, antibody at 50, 5, 0.5, 0.05 nM, HRP goat anti-human IgG Fc, OD450. The method, then: (2) Protein Binding Epitope Analysis: ELISA was used to determine the binding of VHH-IgG4 antibody to each domain of EGFR extracellular protein. Briefly, EGFR his tag protein, and EGFR-V3-his tag antigen protein were diluted to 1 μg/mL, EGFR-D1D2 (L25-A310, P00533-1 (uniprot)), and EGFR-D4 (F481-S645, P00533-1 (uniprot)) his tag antigen were diluted to 0.5 μg/mL, and each well of an ELISA plate was coated with […] antigen and incubated overnight at 4° C. The next day, the plates were washed twice with PBST (added with 0.5% TWEEN-20), then blocked with 3% BSA at 37° C. for 1.5 h, and then washed twice with PBST. Then, the antibody to be tested was diluted to 50 nM, 5 nM, 0.5 nM, 0.05 nM, and added to the wells coated with EGFR his tag protein or EGFR-V3-his tag antigen at 100 µL/well, respectively. The antibody was diluted to 2000 nM, 200 nM, 20 nM, 2 nM, and added to the wells coated with EGFR his tag protein or EGFR-V3-his tag antigen at 100 µL/well, respectively. The ELISA plates were incubated at 37° C. for 1 h. The plates were then washed three times with PBST, and then 100 μL HRP labeled Goat anti human IgG Fc antibody (1:10000, Bethyl) was added into each well, and incubated at 37° C. for another 40 min. […] After stopping the reaction, the optical density at 450/650 nm was measured using a Tecan microplate reader.

Test [4] has as its target T4, EGFR-D4 (F481-S645, P00533-1 (uniprot)) his tag antigen (human, UniProt P00533 481-645).
T4 construct: range 481-645; also called IV domain protein; EGFR-D4 protein; not shown: His tag
Kind of test: ELISA: EGFR-D4 his tag antigen coated at 0.5 µg/mL, antibody at 2000, 200, 20, 2 nM, HRP goat anti-human IgG Fc, OD450. The method, then:
(§2) (2) Protein Binding Epitope Analysis: ELISA was used to determine the binding of VHH-IgG4 antibody to each domain of EGFR extracellular protein. Briefly, EGFR his tag protein, and EGFR-V3-his tag antigen protein were diluted to 1 μg/mL, EGFR-D1D2 (L25-A310, P00533-1 (uniprot)), and EGFR-D4 (F481-S645, P00533-1 (uniprot)) his tag antigen were diluted to 0.5 μg/mL, and each well of an ELISA plate was coated with […] antigen and incubated overnight at 4° C. The next day, the plates were washed twice with PBST (added with 0.5% TWEEN-20), then blocked with 3% BSA at 37° C. for 1.5 h, and then washed twice with PBST. Then, the antibody to be tested was diluted to 50 nM, 5 nM, 0.5 nM, 0.05 nM, and added to the wells coated with EGFR his tag protein or EGFR-V3-his tag antigen at 100 µL/well, respectively. The antibody was diluted to 2000 nM, 200 nM, 20 nM, 2 nM, and added to the wells coated with EGFR his tag protein or EGFR-V3-his tag antigen at 100 µL/well, respectively. The ELISA plates were incubated at 37° C. for 1 h. The plates were then washed three times with PBST, and then 100 μL HRP labeled Goat anti human IgG Fc antibody (1:10000, Bethyl) was added into each well, and incubated at 37° C. for another 40 min. After washing the plates four times with PBST, 100 μL of TMB substrate was added to each well, and the reaction was allowed to proceed for 3-5 min. The reaction was stopped by adding 100 μL of 3N hydrochloric acid per well. After stopping the reaction, the optical density at 450/650 nm was measured using a Tecan microplate reader.

Test [5] deals with T5, EGFR-D1D2 (L25-A310, P00533-1 (uniprot)) his tag antigen (human, UniProt P00533 25-310).
T5 construct: range 25-310; also called I+II domain protein; EGFR-D1D2 protein; not shown: His tag
In words: ELISA: EGFR-D1D2 his tag antigen coated at 0.5 µg/mL, antibody at 2000, 200, 20, 2 nM, HRP goat anti-human IgG Fc, OD450. The method, then: as §2

The target of test [6] is T3, human EGFR.His antigen (Acro, Cat …). Kind of test: SPR, antibody captured on protein A, EGFR.His in flow. The method, then:
The binding kinetics and affinity of candidate antibody to human EGFR.His antigen were determined using surface plasmon resonance (SPR). The purified antibody was flowed through the sensor chips pre-immobilized with protein A, and the antibody was captured by protein A. Then five different concentrations of EGFR.His protein were used as the mobile phase, and the binding time and dissociation time were […], respectively. The binding rate (kon), dissociation rate (koff), and equilibrium constant (kD) were analyzed using Biacore Evaluation Software 2.0 (GE). EC225, an antibody that binds to region III of human EGFR, was selected as a positive control (sequence source https.//go.drugbank.com/drugs/DB00002).

In test [7] the target is T6, EGFR on SKOV3 and Aspc-1 tumor cells (human, UniProt P00533).
T6 construct: endogenous, on the cell surface; the cell line is named under assay; also called tumor cell EGFR
In words: flow cytometry on SKOV3 tumor cells, anti-human IgG PE, MFI, curve fit; unit from the concentration axis and paragraph 62 [table]. The method, then: (§3) Two kinds of tumor cells, SKOV3 and Aspc-1, expressing EGFR were respectively plated in 96 well plates, with 3×10⁵ cells per well, and then the tumor cells were incubated with gradient diluted VHH-IgG4 antibody. After incubation on ice for half an hour, anti human IgG PE (Jackson Immuno Research, Code: 109-117-008, Lot:145501) was added for incubation, and then CytoFLEX flow cytometry was used for detection. The EC50 of the antibody was calculated by curve fitting.

In test [8] the target is T7, Region III of EGFR expressed on HEK293T cells (human, UniProt P00533).
T7 construct: also called HEK293T EGFR-III cells; stably transformed cell line 293T overexpressing EGFR III region protein
Kind of test: flow cytometry on HEK293T cells expressing EGFR region III, anti-human IgG PE, MFI, curve fit; unit from the concentration axis and paragraph 62 [table]. The method, then: HEK293T cells that express Region III of EGFR (i.e., HEK293T […] cells) were plated in a 96-well plate with 3×10⁵ cells/well, and then HEK293T […] cells were incubated with gradient diluted VHH-IgG4 antibody. After incubation for half an hour, anti-human IgG PE (Jackson Immuno Research, Code: 109-117-008, Lot:145501) as the secondary antibody for detection was added for incubation, and then CytoFLEX flow cytometer was used for detection. The EC50 of the antibody was calculated by curve fitting with Graphprism8.0 software. Isotype 1 in the figure is a negative control, and its amino acid sequence is shown as SEQ ID NO: 2 in CN106046152A.

Test [9] concerns the target T6, EGFR on SKOV3 and Aspc-1 tumor cells. In words: flow cytometry on Aspc-1 tumor cells, anti-human IgG PE, MFI, curve fit; unit from the concentration axis and paragraph 62; no upper plateau within the range shown [table]. As to the method: as §3
Test [10] has as its target T3, human EGFR.His antigen (Acro, Cat …). In words: SPR, human EGFR.His.
Test [11] has as its target T6, EGFR on SKOV3 and Aspc-1 tumor cells. Kind of test: flow cytometry on SKOV3 tumor cells, anti-human IgG PE, MFI, curve fit; unit from the concentration axis and paragraph 62; the curve still rises at the highest concentration (MFI about 9700 at about 250 nM) [table]. The method, then: as §3
For test [12] the target is unchanged. In words: flow cytometry on Aspc-1 tumor cells, anti-human IgG PE, MFI, curve fit; unit from the concentration axis and paragraph 62; the curve still rises at the highest concentration (MFI about 9000 at about 250 nM) [table]. As to the method:
as §3

B1: E009 VHH-IgG4 antibody (antibody, V domains shown, not shown: a dimerising Fc or GST)
VH: QVQLVESGGGLVQPGGSLRLSCEASGRIDIIFTMGWYRQTPGNEREFVASVTNYNAKYADSVKGRFTISRENTENTAYLQMNSLKPEDTAIYVCHLNYASDYTEYDYYGQGTQVTVSS
For the molecule B1, the OD450 was 0.08 OD450 in test [1] and 3.36 OD450 in [2]. For the same molecule, the binding result in test [3] is listed as “binds”; in [4], “no binding (tested: 2000 nM)”; in [5], “binds”.

B2: E006 VHH-IgG4 antibody (antibody, V domains shown, not shown: a dimerising Fc or GST)
VH: EVQLVESGGGLVQPGGSLRLSCTASGFTFDTYTTSWERQAPGKEREMVAVLATTGGKPYYVESVKGRFTISRDASETAVTLQMNNLKPEDTAVYYCKATSRSPVNPHNYSGQGTLVTVSS
Consider B2, for which the OD450 in test [1] is 3.13 OD450; in test [2], 3.3 OD450. This molecule also came in with a Kd in test [6] of 6.82 nM. Besides, in [6], the koff came out at 0.000255 s⁻¹. This molecule returned a kon in test [6] of 37400 M⁻¹ s⁻¹. Also, the binding result in test [5] is given as “no binding (tested: 2000 nM)”. Moreover, the values for the EC50 in test [7], in [8] and in [9] were 11 nM, 0.5 nM and 12 nM, respectively.

B3: E006.6 (VHH)
VHH: EVQLVESGGGLVQPGGSLRLSCAASGFTFDTYTTSWERQAPGKEREMVAVLATTGGKPYYVESVKGRFTISRDASENAVTLQMNNLRAEDTAVYYCKATSRSPVNPHNYSGQGTLVTVSS
notes: Humanized VHH; also called humanized variant of E006
In the case of B3, in test [10], the affinity, expressed as Kd, was 11 nM; the off-rate constant (koff) was found to be 0.00032 s⁻¹; the kon came out at 29000 M⁻¹ s⁻¹.

B4: E006.8 (VHH)
VHH: EVQLVESGGGLVQPGGSLRLSCTASGFTFDTYTTSWERQAPGKEREMVSVLATTGGKPYYVESVKGRFTISRDASENAVTLQMNSLRAEDTAVYYCKATSRSPVNPHNYSGQGTLVTVSS
notes: as for B3
In test [10], B4 displayed a Kd of 15 nM, an off-rate constant (koff) of 0.0004 s⁻¹ and a kon of 27000 M⁻¹ s⁻¹.

B5: E006.5 (VHH)
VHH: EVQLVESGGGLVQPGGSLRLSCAASGFTFDTYTTSWERQAPGKEREMVAVLATTGGKPYYVESVKGRFTISRDASENAVYLQMNNLRAEDTAVYYCKATSRSPVNPHNYSGQGTLVTVSS
notes: as for B3
In [10], B5 yielded a Kd of 13 nM, a dissociation rate constant (koff) of 0.00031 s⁻¹ and a kon of 24000 M⁻¹ s⁻¹.

B6: E006.7 (VHH)
VHH: EVQLVESGGGLVQPGGSLRLSCAASGFTFDTYTTSWERQAPGKEREMVSVLATTGGKPYYVESVKGRFTISRDASENAVYLQMNSLRAEDTAVYYCKATSRSPVNPHNYSGQGTLVTVSS
notes: as for B3
Turning to B6, in test [10], the affinity, expressed as Kd, was 14 nM; the koff is 0.00033 s⁻¹; the kon was 24000 M⁻¹ s⁻¹.

B7: E001 VHH-IgG4 antibody (antibody, V domains shown, not shown: a dimerising Fc or GST)
VH: EVQLVESGGGLVQPGGSLRLSCTPSGSGFTIQAMTWYRQAPGKQRELVAIIHQGGSTDYSDSVRGRFTISRDNAKTAWYLQMNNLKPEDTAVYYCNVVPPLRVWGQGTQVTVSS
B7: the figures for the OD450 in test [1] and in test [2] were 0.76 OD450 and 3.3 OD450, respectively. Further, in test [6], binding was characterised by a dissociation constant (Kd) of 0.206 nM. For the same molecule, the koff in test [6] was 1.2e-05 s⁻¹. Further, the kon in test [6] was 57900 M⁻¹ s⁻¹. Also, the binding result in [5] is “no binding (tested: 2000 nM)”. Besides, the EC50 in [8] was determined as 0.32 nM; in test [11], 74 nM; in test [12], 58 nM.
